Experiments:
Format in all cases: in vivo, C57BL/6j mice
[1] = system: myelin sheath in demyelination model mice; test: MBP positive regions in spinal cord of demyelination model mice (Example 6); conditions: subcutaneous 500 ng/kg per day for 2 weeks from 7 days after lysophosphatidylcholine, one mouse per group, FIG. 6
Procedure: Demyelination model mice were created as in Example 5 above. An FGF21-containing solution prepared by diluting recombinant FGF21 (R&D) in saline solution was subcutaneously administered for 2 weeks at a dose of 500 ng/kg body weight of FGF21 per day, to the demyelination model mice after 7 days from the administration of lysophosphatidylcholine. After 2 weeks, the demyelination model mice were anesthetized and transcardially perfused with saline solution, and spinal cord tissue was harvested. Sections were prepared from the harvested spinal cord tissue as in Example 5 above and then immunostained using an anti-MBP antibody, and MBP positive regions in the sections were counted. As a control, a saline solution containing 0.5% BSA was used, and MBP positive regions were counted under the same conditions as those described above. This experiment conducted the study using one mouse for each group.

demyelination model mice = test: Ladder walk test of hindlimb motor function in demyelination model mice (Example 7); conditions: FGF21 administered as in Example 5, FIG. 7
Procedure: Demyelination model mice were created, and recombinant FGF21 was administered, as in Example 5 above. The hindlimb motor function of the mice was examined by performing the ladder walk test. A 1-m long ladder was installed in a position at a height of 15 cm. The mice were allowed to walk on the ladder with random widths of 0.6, 1.2, and 1.8 cm. The number of missed steps was counted, and the proportion (%) of the number of missed steps relative to the total number of steps was calculated. This experiment conducted the study using three mice for each group.

[2] = system: oligodendrocyte precursor cells in demyelination model mice; test: PDGFRα and Ki67 double-positive cells in spinal cord of demyelination model mice, subcutaneous administration (Example 5); conditions: subcutaneous 500 ng/kg body weight per day for 2 weeks, vs saline with 0.5% BSA, FIG. 5
Procedure: Demyelination model mice were produced by performing a laminectomy at the 11th and 12th thoracic vertebrae in C57BL/6j mice (female, 7-week-old), and topically administering 2 μl of lysophosphatidylcholine diluted to 1% (w/v) in saline solution at a depth of 2 mm into the midline of the spinal column.
An FGF21-containing solution prepared by diluting recombinant FGF21 (R&D) in saline solution was subcutaneously administered for 2 weeks at a dose of 500 ng/kg body weight of FGF21 per day. After 2 weeks, the demyelination model mice were anesthetized and transcardially perfused with saline solution, and spinal cord tissue was harvested. The harvested spinal cord tissue was fixed with a 4% paraformaldehyde solution, which was then replaced with a 30% sucrose solution, and subsequently, frozen thin sections were prepared. The sections were immunostained using an anti-PDGFRα antibody and an anti-Ki67 antibody, and the number of PDGFRα and Ki67 double-positive cells in the sections was counted. As a control, a saline solution containing 0.5% BSA was used, and the number of PDGFRα and Ki67 double-positive cells was counted under the same conditions as those described above. This experiment conducted the study using five or six mice for each group.

B1: FGF21: Recombinant fibroblast growth factor 21 (R&D); the claimed active ingredient promoting oligodendrocyte precursor cell proliferation (protein, listed as Homo sapiens)
chain: MDSDETGFEHSGLWVSVLAGLLLGACQAHPIPDSSPLLQFGGQVRQRYLYTDDAQQTEAHLEIREDGTVGGAADQSPESLLQLKALKPGVIQILGVKTSRFLCQRPDGALYGSLHFDPEACSFRELLLEDGYNVYQSEAHGLPLHLPGNKSPHRDPAPRGPARFLPLPGLPPALPEPPGILAPQPPDVGSSDPLSMVGPSQGRSPSYAS
MBP positive regions [1]: increased | number of missed steps on the ladder (demyelination model mice): decreased | number of PDGFRα and Ki67 double-positive cells [2]: increased
